Entries after “also recorded” stand apart in the source; their conditions may differ.
Experiments:
[1] = test system: mouse glioblastoma cells; assay: Glioblastoma cell growth curves, polyclonal antibody versus tmCLIC1omab; assay type: cell-based; settings: exposing cells for 96 hours
Protocol: The cells were seeded in 24-well plates (20,000 cells/well) and counted after 24, 48, 72 and 96 hours to construct the growth curve. The cells were collected and centrifuged, and the resuspended pellet was diluted 1:1 with Trypan Blue. An automated counter (Countess II, Thermo Fisher Scientific) was used to count the cells. All data were normalized to their controls.
The cells were plated in 24-well multiwell plates at a density of 10,000 cells/cm 2. The number of live and dead cells for each sample was counted after 72 hours with an automated counter (Countess II, Thermo Fisher Scientific), following the same process as used for the growth curves. All data were standardised to the corresponding controls.

[2] = test system: COLO201; assay: COLO201 spheroids, 3D culture; assay type: cell-based; settings: treated 24 to 96 hours, area normalized on initial area
Protocol: To evaluate whether tmCLIC1omab is able to penetrate across tumor spheroids, a 3D culture was performed. After the complete formation of spheroids, treatments were added and the area was measured every 24 hours up to 96 hours. The area at each time point was then normalized on the initial spheroids' area.
Spheroids were formed with hanging-drop method and then plated in rounded 96 plates coated with 5% of agar. After the complete formation of spheroids, treatments were added and the area was measured every 24 hours up to 96 hours. The area at each time point was then normalized on the initial spheroids' area.

B1: tmCLIC1omab: IgG1 class antibody containing the heavy chain variable region SEQ ID NO:13 and the light chain variable region SEQ ID NO:14 (antibody, listed as Mus musculus, V domains shown)
VH: EVMLVESGGGLVKPGGSLKLSCAASGFAFSNYAMSWIRQIPEKRLEWVATISTGGSSTFYPDSVKGRFTISRDNAKNTLYLQMSSLRSEDTAMYYCTRHAYEAWFAYWGQGTLVTVSA
VL: QIVLTQSPALMSASPGEKVTMTCSASSSVSYMYWYQQRPRSSPKPWIYLTSTLASGVPTRFSGSGSGTSYSLTISSMEAEDAATYYCQQWNSHPLTFGSGTKLEIK
[1]
  percentage of cell death: 15%
[2]
  spheroids' area / proliferation of spheroids versus control: significantly smaller compared to the control from 48 h; also recorded: impair proliferation of spheroids significantly after 48 hours
